From patent US20220363763A1 (ABL BIO, published 2022)
Changes are numbered by the printed parent chain. Read-outs that look alike come from different tables or passages of the source. Values belong to the binder of their own block, whether it stands above or below them.

How the values were obtained:
[1] = target: T1, human PD-L1 (construct not stated) (human, UniProt Q9NZQ7 19-239, limits assumed); assay: SPR Biacore, capture method
T1 construct: also called B7-H1 (PD-L1); PD-L1 protein
Method: (§1) The binding affinities of bispecific antibodies PD-L1 and LAG3 of the bispecific antibodies (BsAb; 147xH12, 147H3807xB6 and B6x147H3807) prepared in Example 3 to PD-L1 protein and human LAG3 protein were tested with BIACORE™ using a capture method.

[2] = target: T2, human LAG3 (construct not stated) (human, UniProt P18627 23-450, limits assumed); assay: SPR Biacore, capture method
T2 construct: also called human LAG3 protein; antigen
T2 sequence (looked up): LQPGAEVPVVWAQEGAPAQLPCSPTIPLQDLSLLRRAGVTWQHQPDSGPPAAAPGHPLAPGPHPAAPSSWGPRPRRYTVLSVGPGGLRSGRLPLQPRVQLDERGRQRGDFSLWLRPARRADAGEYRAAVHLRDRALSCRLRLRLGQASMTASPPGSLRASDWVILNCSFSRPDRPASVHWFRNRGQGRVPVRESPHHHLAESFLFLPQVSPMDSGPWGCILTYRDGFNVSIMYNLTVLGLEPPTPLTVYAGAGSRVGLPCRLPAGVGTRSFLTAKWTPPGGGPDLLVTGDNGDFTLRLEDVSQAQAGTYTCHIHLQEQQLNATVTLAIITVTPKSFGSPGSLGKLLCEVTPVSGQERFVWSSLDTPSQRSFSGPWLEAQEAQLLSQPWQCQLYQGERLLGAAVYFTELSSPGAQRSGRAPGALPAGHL
Method: as §1

human PD-L1-Fc protein [3] = target: T3, human PD-L1-Fc protein (human, UniProt Q9NZQ7 19-239); assay: ELISA on coated human PD-L1-Fc, panel PD-L1
T3 construct: Coated on ELISA plates; also called huPD-L1; not shown: Fc part
T3 sequence (Q9NZQ7 19-239 limits assumed): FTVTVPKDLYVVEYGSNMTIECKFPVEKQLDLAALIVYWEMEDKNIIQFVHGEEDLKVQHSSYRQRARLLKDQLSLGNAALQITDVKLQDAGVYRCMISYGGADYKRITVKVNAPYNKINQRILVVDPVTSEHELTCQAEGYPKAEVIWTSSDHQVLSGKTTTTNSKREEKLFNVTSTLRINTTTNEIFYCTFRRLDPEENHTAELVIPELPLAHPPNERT
Text: To evaluate the binding activity to PD-L1 and LAG3 of the bispecific antibodies (BsAb; H12x147 and 147xH12) prepared in Example 3, the BsAb were subjected to ELISA test.

[4] = target: T1, human PD-L1 (construct not stated); assay: BLI Octet Red 96, affinity ranking
Text: To explore the binding kinetics of the humanized antibody, this example performed the affinity ranking by using Octet Red 96.

[5] = target: T4, human PD-L1 expressed on mammalian cells (human, UniProt Q9NZQ7 19-290); assay: FACS receptor blocking on PDL1-CHOK1 cells, competitor Bio-PD1 (30 µg/ml)
T4 construct: whole, on cells; also called PDL1-CHOK1 cells; PDL1-Raji cells
T4 sequence (Q9NZQ7 19-290): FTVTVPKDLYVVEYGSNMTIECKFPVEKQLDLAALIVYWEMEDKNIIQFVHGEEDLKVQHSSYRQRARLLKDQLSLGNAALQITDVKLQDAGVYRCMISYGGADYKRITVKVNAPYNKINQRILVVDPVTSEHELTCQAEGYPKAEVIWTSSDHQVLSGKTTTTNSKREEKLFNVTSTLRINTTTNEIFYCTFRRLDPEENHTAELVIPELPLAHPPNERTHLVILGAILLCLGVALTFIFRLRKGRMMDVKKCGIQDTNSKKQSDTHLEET
Method: To evaluate the blocking effect of humanized antibodies on human PD-L1 expressed on mammalian cells to bind to its receptor PD-1, the FACS-based receptor blocking assay was employed. Briefly, PDL1-CHOK1 cells were firstly incubated with 3-fold serious diluted HL1210-3 mouse mAb starting at 20 μg/ml at RT for 1 hour. After wash by FACS buffer (PBS with 2% FBS), the biotin-labeled huPD-1 were added to each well and incubated at RT for 1 hour. Then, the Streptavidin-PE was added to each well for 0.5 hour post twice wash with FACS buffer. The mean florescence intensity (MFI) of PE was evaluated by FACSAriaIII.

human PD-L1-Fc protein [6] = target: T3, human PD-L1-Fc protein; assay: ELISA on coated human PD-L1-Fc; EC50 table has no unit, x axis Ab(nM)
Method: (§2) To evaluate the antigen binding activity, the humanized antibodies were subjected to ELISA test. Briefly, microtiter plates were coated with human PD-L1-Fc protein at 0.1 μg/ml in PBS, 100 μl/well at 4° C. overnight, then blocked with 100 μl/well of 5% BSA. Five-fold dilutions of humanized antibodies starting from 10 μg/ml were added to each well and incubated for 1-2 hours at RT. The plates were washed with PBS/Tween and then incubate with […] antibody conjugated with Horse Radish Peroxidase (HRP) for 1 hour at RT. After washing, the plates were developed with TMB substrate and analyzed by spectrophotometer at OD 450-630 nm.

[7] = target: T4, human PD-L1 expressed on mammalian cells; assay: flow cytometry (MFI) on PDL1-CHOK1 cells; EC50 table has no unit, x axis Antibodies(nM)
Method: (§3) To evaluate the antigen binding property, the humanized antibodies were analyzed for its binding to mammalian expressed PD-L1 by FACS. Briefly, PDL1-CHOK1 cells were firstly incubated with 5-fold serious diluted humanized antibodies starting at 2 μg/ml at RT for 1 hour. After wash by FACS buffer (PBS with 2% FBS), the alexa 488-anti-human IgG antibody was added to each well and incubated at RT for 1 hour. The MFI of Alexa 488 was evaluated by FACSAriaIII.

human PD-L1-Fc protein [8] = target: T3, human PD-L1-Fc protein; assay: ELISA on coated human PD-L1-Fc; EC50 table has no unit, x axis Ab(nM); remark: listed apart in the source
Method: as §2

[9] = target: T4, human PD-L1 expressed on mammalian cells; assay: flow cytometry (MFI) on PDL1-CHOK1 cells; EC50 table has no unit, x axis Antibodies(nM); remark: listed apart in the source
Method: as §3

[10] = target: T5, human PD-L1-his taq protein (human, UniProt Q9NZQ7 19-239, limits assumed); assay: SPR Biacore T200, antibody captured, PD-L1-his injected
T5 construct: also called recombinant PD-L1 protein; recombinant human PD-L1; not shown: his tag
T5 sequence (Q9NZQ7 19-239 limits assumed): as the sequence (Q9NZQ7 19-239 limits assumed) above
Method: The binding of the humanized antibodies to recombinant PD-L1 protein (human PD-L1-his taq) was tested by BIACORE™ using a capture method. The HL1210-3 mouse mAb were captured using anti-mouse Fc antibody coated on a CM5 chip. A series dilution of human PD-L1-his taq protein was injected over captured antibody for 3 mins at a flow rate of […]. The antigen was allowed to dissociate for 900 s. All the experiments were carried out on a Biacore T200.

human PD-L1-Fc protein [11] = target: T3, human PD-L1-Fc protein; assay: ELISA on coated human PD-L1-Fc; EC50 table has no unit, x axis Ab(nM); remark: listed apart in the source
Method: as §2

[12] = target: T4, human PD-L1 expressed on mammalian cells; assay: flow cytometry (MFI) on PDL1-CHOK1 cells; EC50 table has no unit, x axis Antibodies(nM); remark: listed apart in the source
Method: as §3

human PD-L1-Fc protein [13] = target: T3, human PD-L1-Fc protein; assay: ELISA on coated human PD-L1-Fc; EC50 table has no unit, x axis Ab(nM); remark: listed apart in the source
Method: as §2

T1 sequence (Q9NZQ7 19-239 limits assumed): as above

Kd [1]: 27.4 nM
Kd [2]: 13.5 nM
B1: 147xH12 (bispecific antibody, human IgG4 S228P, kappa)
heavy: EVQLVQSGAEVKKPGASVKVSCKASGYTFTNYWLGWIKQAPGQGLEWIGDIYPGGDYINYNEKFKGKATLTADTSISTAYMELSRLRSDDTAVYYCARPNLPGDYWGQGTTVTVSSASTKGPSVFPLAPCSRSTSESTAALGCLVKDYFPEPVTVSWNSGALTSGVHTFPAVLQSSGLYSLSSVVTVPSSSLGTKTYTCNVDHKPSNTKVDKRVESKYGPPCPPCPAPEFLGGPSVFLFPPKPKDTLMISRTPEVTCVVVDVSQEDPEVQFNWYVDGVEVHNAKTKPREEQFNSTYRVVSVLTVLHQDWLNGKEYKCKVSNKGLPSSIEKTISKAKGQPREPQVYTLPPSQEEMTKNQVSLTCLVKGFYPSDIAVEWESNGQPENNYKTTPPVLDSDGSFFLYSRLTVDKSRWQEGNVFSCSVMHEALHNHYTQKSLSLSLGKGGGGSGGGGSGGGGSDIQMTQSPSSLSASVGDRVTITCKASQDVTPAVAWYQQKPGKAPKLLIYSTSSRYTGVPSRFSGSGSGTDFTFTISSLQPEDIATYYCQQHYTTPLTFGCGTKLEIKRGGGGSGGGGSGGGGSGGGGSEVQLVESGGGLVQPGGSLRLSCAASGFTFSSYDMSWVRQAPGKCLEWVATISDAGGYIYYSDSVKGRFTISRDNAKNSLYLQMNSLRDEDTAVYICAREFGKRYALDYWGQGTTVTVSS
light: DIVMTQSPLSLPVTPGEPASISCRSSKSLLHSNGITYLYWYLQKPGQSPQLLIYQVSNLASGVPDRFSGSGSGTDFTLKISRVEAEDVGVYYCAQNLELPWTFGGGTKVEIKRTVAAPSVFIFPPSDEQLKSGTASVVCLLNNFYPREAKVQWKVDNALQSGNSQESVTEQDSKDSTYSLSSTLTLSKADYEKHKVYACEVTHQGLSSPVTKSFNRGEC
notes: also called A3L1

Kd [1]: 5.94 nM
Kd [2]: 1.63 nM
B2: 147(H3807)xB6 (bispecific antibody, human IgG4 S228P, kappa)
heavy: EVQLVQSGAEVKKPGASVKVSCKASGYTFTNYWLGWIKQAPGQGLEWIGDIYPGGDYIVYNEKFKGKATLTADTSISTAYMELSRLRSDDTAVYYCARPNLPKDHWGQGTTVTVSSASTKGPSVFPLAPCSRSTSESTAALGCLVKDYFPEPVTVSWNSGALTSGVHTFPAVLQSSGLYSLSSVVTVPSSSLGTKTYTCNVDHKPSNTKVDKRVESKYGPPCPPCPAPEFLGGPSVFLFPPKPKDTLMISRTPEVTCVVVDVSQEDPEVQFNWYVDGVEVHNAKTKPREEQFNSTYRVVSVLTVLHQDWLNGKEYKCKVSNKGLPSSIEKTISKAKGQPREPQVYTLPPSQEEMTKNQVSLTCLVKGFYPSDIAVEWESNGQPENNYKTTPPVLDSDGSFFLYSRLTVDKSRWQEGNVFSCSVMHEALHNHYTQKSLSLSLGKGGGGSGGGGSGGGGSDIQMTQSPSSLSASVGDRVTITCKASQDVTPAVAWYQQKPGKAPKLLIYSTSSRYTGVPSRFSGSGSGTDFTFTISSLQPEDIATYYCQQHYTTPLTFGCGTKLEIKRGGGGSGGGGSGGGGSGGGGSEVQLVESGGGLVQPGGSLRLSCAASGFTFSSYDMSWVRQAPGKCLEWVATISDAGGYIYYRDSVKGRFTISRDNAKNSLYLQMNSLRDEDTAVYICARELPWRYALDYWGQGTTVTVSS
light: B1 light with N33Q, N96Y

EC50 (read off the curve) (human PD-L1-Fc protein [3]): ~1 nM
B3: H12x147(H3807) (bispecific antibody, human IgG1, kappa, N297A)
heavy chain of H12 (IgG) - linker - scFv of 147(H3807) (VL - linker - VH): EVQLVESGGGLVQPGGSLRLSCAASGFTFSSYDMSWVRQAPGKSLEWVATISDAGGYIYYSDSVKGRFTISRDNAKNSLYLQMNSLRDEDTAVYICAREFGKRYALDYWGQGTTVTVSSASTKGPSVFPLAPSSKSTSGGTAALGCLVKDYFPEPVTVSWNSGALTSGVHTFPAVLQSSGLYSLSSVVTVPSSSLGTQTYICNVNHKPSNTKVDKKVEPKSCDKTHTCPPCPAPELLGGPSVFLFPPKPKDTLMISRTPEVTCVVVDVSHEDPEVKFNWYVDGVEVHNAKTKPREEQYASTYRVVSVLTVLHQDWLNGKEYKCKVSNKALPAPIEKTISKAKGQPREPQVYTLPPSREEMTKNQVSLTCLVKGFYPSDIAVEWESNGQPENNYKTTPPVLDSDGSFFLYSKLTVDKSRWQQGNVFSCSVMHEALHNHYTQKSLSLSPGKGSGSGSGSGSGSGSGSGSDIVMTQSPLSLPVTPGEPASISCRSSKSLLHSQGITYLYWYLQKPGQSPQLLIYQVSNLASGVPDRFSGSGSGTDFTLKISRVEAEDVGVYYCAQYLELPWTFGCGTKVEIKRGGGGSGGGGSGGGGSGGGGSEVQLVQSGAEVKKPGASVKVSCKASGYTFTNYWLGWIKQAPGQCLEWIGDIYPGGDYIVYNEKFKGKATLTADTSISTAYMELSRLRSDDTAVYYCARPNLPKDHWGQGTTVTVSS
light chain of H12: DIQMTQSPSSLSASVGDRVTITCKASQDVTPAVAWYQQKPGKAPKLLIYSTSSRYTGVPSRFSGSGSGTDFTFTISSLQPEDIATYYCQQHYTTPLTFGQGTKLEIKRTVAAPSVFIFPPSDEQLKSGTASVVCLLNNFYPREAKVQWKVDNALQSGNSQESVTEQDSKDSTYSLSSTLTLSKADYEKHKVYACEVTHQGLSSPVTKSFNRGEC

Kd [1]: 1.18 nM
Kd [2]: 8.87 nM
EC50 (read off the curve) (human PD-L1-Fc protein [3]): ~0.3 nM
B4: B6x147(H3807) (bispecific antibody, human IgG1, kappa, N297A)
heavy: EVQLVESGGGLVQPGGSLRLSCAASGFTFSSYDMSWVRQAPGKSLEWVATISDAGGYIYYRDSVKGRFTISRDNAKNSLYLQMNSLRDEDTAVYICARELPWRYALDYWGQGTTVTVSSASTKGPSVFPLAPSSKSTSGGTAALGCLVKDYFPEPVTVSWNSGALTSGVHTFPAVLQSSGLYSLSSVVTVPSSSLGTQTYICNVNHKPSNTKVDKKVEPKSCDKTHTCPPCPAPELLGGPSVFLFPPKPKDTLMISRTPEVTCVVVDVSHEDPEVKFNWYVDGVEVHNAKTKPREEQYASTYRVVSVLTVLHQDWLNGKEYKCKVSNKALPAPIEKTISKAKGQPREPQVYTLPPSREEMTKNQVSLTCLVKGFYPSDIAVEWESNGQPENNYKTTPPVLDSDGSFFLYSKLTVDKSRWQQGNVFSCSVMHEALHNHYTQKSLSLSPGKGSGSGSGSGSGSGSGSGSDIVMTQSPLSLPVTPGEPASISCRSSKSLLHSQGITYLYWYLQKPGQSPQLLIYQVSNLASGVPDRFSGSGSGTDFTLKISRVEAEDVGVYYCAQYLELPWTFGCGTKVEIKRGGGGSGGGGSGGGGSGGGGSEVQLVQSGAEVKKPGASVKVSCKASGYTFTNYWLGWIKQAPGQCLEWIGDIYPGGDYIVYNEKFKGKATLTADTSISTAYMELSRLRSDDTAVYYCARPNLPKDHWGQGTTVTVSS
light: B3 light chain of H12

Kd [4]: 2.64 nM
koff [4]: 0.000228 s⁻¹
kon [4]: 86200 M⁻¹ s⁻¹
TOP [5]: 84.3
EC50 (human PD-L1-Fc protein [6]): 0.186 nM
EC50 [7]: 1.37 nM
B5: Hu1210-3 (antibody, V domains shown)
VH: EVQLVESGGGLVKPGGSLRLSCAASGFTFSSYDMSWVRQAPGKSLEWVATISDGGGYIYYSDSVKGRFTISRDNAKNSLYLQMNSLRAEDTAVYICAREFGKRYALDYWGQGTTVTVSS
VL: DIQMTQSPSSLSASVGDRVTITCKASQDVTPAVAWYQQKPGKAPKLLIYSTSSRYTGVPSRFSGSGSGTDFTFTISSLQPEDIATYYCQQHYTTPLTFGQGTKLEIK
notes: Hu1210 VH.1b x Vk.1; human gamma 1 / kappa constant domains

Kd [4]: 2.56 nM
koff [4]: 0.00023 s⁻¹
kon [4]: 90000 M⁻¹ s⁻¹
TOP [5]: 85.8
EC50 (human PD-L1-Fc protein [8]): 0.148 nM
EC50 [9]: 1.17 nM
B6: Hu1210-22 (antibody, V domains shown)
VH: B5 VH with K13Q, A88D
VL: B5 VL with A43S
notes: Hu1210 VH.4b x Vk.1a; human gamma 1 / kappa constant domains

Kd [4]: 3.14 nM
koff [4]: 0.000264 s⁻¹
kon [4]: 84100 M⁻¹ s⁻¹
Kd [10]: 0.672 nM
koff [10]: 6.7e-05 s⁻¹
kon [10]: 99800 M⁻¹ s⁻¹
TOP [5]: 88
EC50 (human PD-L1-Fc protein [11]): 0.179 nM
EC50 [12]: 1.41 nM
B7: Hu1210-16 (antibody, V domains shown)
VH: B5 VH with K13Q, S44G, A88D, I95Y
VL: B5 VL
notes: Hu1210 VH.4a x Vk.1; human gamma 1 / kappa constant domains

Kd [4]: 7.68 nM
koff [4]: 0.000546 s⁻¹
kon [4]: 71200 M⁻¹ s⁻¹
EC50 (human PD-L1-Fc protein [6]): 0.184 nM
EC50 [7]: 2.12 nM
B8: Hu1210-4 (antibody, V domains shown)
VH: B5 VH with V37I, S44G, A49S, I95Y
VL: B5 VL
notes: Hu1210 VH.2 x Vk.1; human gamma 1 / kappa constant domains

Kd [4]: 1.64 nM
koff [4]: 0.000127 s⁻¹
kon [4]: 77200 M⁻¹ s⁻¹
Kd [10]: 0.767 nM
koff [10]: 7.17e-05 s⁻¹
kon [10]: 93500 M⁻¹ s⁻¹
TOP [5]: 86.3
EC50 (human PD-L1-Fc protein [13]): 0.186 nM
EC50 [7]: 1.23 nM
B9: Hu1210-8 (antibody, V domains shown)
VH: B5 VH with S44G, I95Y
VL: B5 VL with A43S
notes: Hu1210 VH.1a x Vk.1a; human gamma 1 / kappa constant domains

Kd [4]: 4.36 nM
koff [4]: 0.000366 s⁻¹
kon [4]: 83800 M⁻¹ s⁻¹
EC50 (human PD-L1-Fc protein [11]): 0.187 nM
EC50 [12]: 1.57 nM
B10: Hu1210-13 (antibody, V domains shown)
VH: B5 VH with V5L, K13Q, S44G, A49S, A75S, S78T, I95Y
VL: B5 VL
notes: Hu1210 VH.3 x Vk.1; human gamma 1 / kappa constant domains

Kd [4]: 2.34 nM
koff [4]: 0.000197 s⁻¹
kon [4]: 84100 M⁻¹ s⁻¹
Kd [10]: 0.435 nM
koff [10]: 5.29e-05 s⁻¹
kon [10]: 122000 M⁻¹ s⁻¹
TOP [5]: 79.6
EC50 (human PD-L1-Fc protein [11]): 0.163 nM
EC50 [12]: 1.46 nM
B11: Hu1210-14 (antibody, V domains shown)
VH: B5 VH with V5L, K13Q, A75S, S78T
VL: B5 VL
notes: Hu1210 VH.3a x Vk.1; human gamma 1 / kappa constant domains

Kd [4]: 4.83 nM
koff [4]: 0.000383 s⁻¹
kon [4]: 79300 M⁻¹ s⁻¹
EC50 (human PD-L1-Fc protein [6]): 0.193 nM
EC50 [7]: 1.43 nM
B12: Hu1210-5 (antibody, V domains shown)
VH: B5 VH with V37I, S44G, I95Y
VL: B5 VL
notes: Hu1210 VH.2a x Vk.1; human gamma 1 / kappa constant domains

Kd [4]: 4.45 nM
koff [4]: 0.00035 s⁻¹
kon [4]: 78700 M⁻¹ s⁻¹
EC50 (human PD-L1-Fc protein [11]): 0.187 nM
EC50 [12]: 2.04 nM
B13: Hu1210-15 (antibody, V domains shown)
VH: B5 VH with K13Q, S44G, A49S, A88D, I95Y
VL: B5 VL
notes: Hu1210 VH.4 x Vk.1; human gamma 1 / kappa constant domains
